Article PMC8262886, “The Breadth and Molecular Basis of Hcp-Driven Type VI Secretion System Effector Delivery” (mBio, 2021)

Biological target: the molecule itself
Test: negative-stain electron microscopy; purified Hcp1-His diluted to 0.01 mg/ml, 2% uranyl acetate, 2D class averages with top and side views

B1: Hcp1-His (natural protein)
chain: MAVDMFIKIGDVKGESKDKTHAEEIDVLAWSWGMSQSGSMHMGGGGGAGKVNVQDLSFTKYIDKSTPNLMMACSSGKHYPQAKLTIRKAGGENQVEYLIITLKEVLVSSVSTGGSGGEDRLTENVTLNFAQVQVDYQPQKADGAKDGGPVKYGWNIRQNVQA
notes: Hcp1 of Pseudomonas aeruginosa, the Hcp of the H1-T6SS; also called His-tagged version of Hcp1; source: E. coli BL21(λDE3), from pACYCDuet-1; coexpressed with an effector, in lysate, copurified (Ni-NTA, SEC); also purified alone (Ni-NTA, SEC); not shown: His, C-terminal, kept
  binding result: binds
